Experimental findings from PMC7797036 are described below.

The target of data set [1] is APOBEC1 (A1), RNase A treated (UniProt P41238). The experiment in a line: fluorescence anisotropy. (In fluorescence polarisation assays a small probe gives low polarisation when free and higher when bound to something large.)
Data set [2] deals with APOBEC1 (A1), RNase A untreated. The experiment in a line: fluorescence anisotropy.
Data set [3] has as its system APOBEC3H haplotype VII. The experiment in a line: fluorescence anisotropy.
Data set [4] deals with APOBEC3C (UniProt Q9NRW3 1-190). The experiment in a line: EMSA. (In general: A gel shift assay detects complexes by their altered migration in electrophoresis.)
Chain of APOBEC3C (Q9NRW3 whole entry): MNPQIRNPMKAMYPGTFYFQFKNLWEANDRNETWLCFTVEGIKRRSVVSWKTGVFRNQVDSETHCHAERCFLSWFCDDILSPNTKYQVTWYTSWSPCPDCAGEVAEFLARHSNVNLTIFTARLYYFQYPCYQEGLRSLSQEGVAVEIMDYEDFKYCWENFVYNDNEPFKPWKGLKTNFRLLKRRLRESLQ

Chain of APOBEC1 (A1), RNase A treated (P41238 whole entry): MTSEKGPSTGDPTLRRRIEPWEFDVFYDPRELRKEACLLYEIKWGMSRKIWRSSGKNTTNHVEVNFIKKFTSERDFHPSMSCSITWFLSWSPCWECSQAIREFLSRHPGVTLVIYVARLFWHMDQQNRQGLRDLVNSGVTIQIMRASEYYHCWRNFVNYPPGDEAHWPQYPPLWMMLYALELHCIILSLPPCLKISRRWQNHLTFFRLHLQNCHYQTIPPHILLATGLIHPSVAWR

With “118 nt ssDNA with two 5'TTC motifs 63 nt apart”, the figures for the Kd in data set [1] and in data set [2] were 343 nM and 351 nM, respectively. The binding signal (fold Kd increase vs no RPA) turned out to be 9 in data set [1] and 3 in data set [3].

On to ATTATTATTATTCGAATGGATTTATTTATTTATTTATTTATTT (ssDNA) [43 nt ssDNA], for which, in data set [4], the binding result is recorded as “binds”.
